Target: Acanthamoeba actin (Acanthamoeba)

Substance: Acanthamoeba actin (natural protein)
- kon: 7.8e+06 M⁻¹ s⁻¹
